One test addresses WHSC1L1 1054–1285 (UniProt O96028).
Another test concerns the target WHSC1 941–1240 (UniProt O96028).

The values below come from paper PMC5942779, “Identification of a peptide inhibitor for the histone methyltransferase WHSC1” (PLoS ONE, 2018).

WHSC1 941–1240, sequence (O96028 941-1240): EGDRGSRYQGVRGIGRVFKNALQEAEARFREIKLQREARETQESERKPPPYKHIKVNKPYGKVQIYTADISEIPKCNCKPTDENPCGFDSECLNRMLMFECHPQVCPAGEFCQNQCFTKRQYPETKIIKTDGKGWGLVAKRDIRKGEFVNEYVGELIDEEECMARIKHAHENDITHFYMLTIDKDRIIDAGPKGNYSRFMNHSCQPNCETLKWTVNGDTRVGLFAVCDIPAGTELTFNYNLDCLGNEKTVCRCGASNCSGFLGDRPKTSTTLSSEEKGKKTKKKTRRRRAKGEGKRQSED
WHSC1L1 1054–1285, sequence (O96028 1054-1285): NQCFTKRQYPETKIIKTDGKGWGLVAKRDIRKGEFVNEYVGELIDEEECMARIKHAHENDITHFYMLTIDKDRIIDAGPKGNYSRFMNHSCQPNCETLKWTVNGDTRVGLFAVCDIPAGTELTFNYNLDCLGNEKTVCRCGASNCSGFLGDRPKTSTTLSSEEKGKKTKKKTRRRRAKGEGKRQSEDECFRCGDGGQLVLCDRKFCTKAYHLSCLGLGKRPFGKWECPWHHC

Molecule Ac-GVARI-NH2 [PTD3] showed a Biochemical IC50: inhibition of 3H-methyl transfer from SAM to the biotinylated H4 peptide by WHSC1L1 1054–1285 with WHSC1L1 1054–1285 of more than 1000 µM. Besides, the Biochemical IC50: inhibition of 3H-methyl transfer from SAM to the biotinylated H4 peptide by WHSC1 941–1240 with WHSC1 941–1240 came out at 640 µM.
